Columns and labels:
[1] = target: Fyn (UniProt P06241); assay: phosphorylation enrichment, bacterial display (enrichment ratio); higher = better substrate or ligand; peptides without Tyr show the background
[2] = target: EPHB1 (UniProt P54762); assay: as above
[3] = target: Jak2 (UniProt O60674); assay: as above
[4] = system: Fer (mouse); assay: as above
[5] = target: Hck (UniProt P08631); assay: as above
[6] = system: c-Abl (mouse); assay: as above
[7] = target: EPHB2 (UniProt P29323); assay: as above
[8] = system: c-Src; assay: as above
[9] = target: FGFR1 (UniProt P11362); assay: as above
[10] = target: Fes (UniProt P07332); assay: as above
[11] = target: MERTK (UniProt Q12866); assay: as above
[12] = system: AncSZ; assay: as above
[13] = target: FGFR3 (UniProt P22607); assay: as above
[14] = target: Grb2 SH2 (UniProt P62993); assay: SH2 binding enrichment of the phosphorylated peptide, bacterial display (enrichment ratio); higher = better substrate or ligand; peptides without Tyr show the background
[15] = target: c-Src SH2; assay: as above
[16] = target: SHP2-C SH2; assay: as above
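Throughout, for SH2 binding enrichment of the phosphorylated peptide, bacterial display: peptide library displayed on the E. coli surface as eCPX fusions, selected cells deep-sequenced, score is each peptide's frequency after selection divided by its frequency in the input.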
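Throughout, for phosphorylation enrichment, bacterial display: 11-residue human phosphosite peptides and single-mutation variants displayed on the E. coli surface, counted by deep sequencing, each peptide's frequency after selection divided by its frequency in the unselected input library; frequency after pTyr selection over input frequency; kinase dosed for 20-30% of maximal phosphorylation in three min.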

Sequence of MERTK (Q12866 whole entry, looked up): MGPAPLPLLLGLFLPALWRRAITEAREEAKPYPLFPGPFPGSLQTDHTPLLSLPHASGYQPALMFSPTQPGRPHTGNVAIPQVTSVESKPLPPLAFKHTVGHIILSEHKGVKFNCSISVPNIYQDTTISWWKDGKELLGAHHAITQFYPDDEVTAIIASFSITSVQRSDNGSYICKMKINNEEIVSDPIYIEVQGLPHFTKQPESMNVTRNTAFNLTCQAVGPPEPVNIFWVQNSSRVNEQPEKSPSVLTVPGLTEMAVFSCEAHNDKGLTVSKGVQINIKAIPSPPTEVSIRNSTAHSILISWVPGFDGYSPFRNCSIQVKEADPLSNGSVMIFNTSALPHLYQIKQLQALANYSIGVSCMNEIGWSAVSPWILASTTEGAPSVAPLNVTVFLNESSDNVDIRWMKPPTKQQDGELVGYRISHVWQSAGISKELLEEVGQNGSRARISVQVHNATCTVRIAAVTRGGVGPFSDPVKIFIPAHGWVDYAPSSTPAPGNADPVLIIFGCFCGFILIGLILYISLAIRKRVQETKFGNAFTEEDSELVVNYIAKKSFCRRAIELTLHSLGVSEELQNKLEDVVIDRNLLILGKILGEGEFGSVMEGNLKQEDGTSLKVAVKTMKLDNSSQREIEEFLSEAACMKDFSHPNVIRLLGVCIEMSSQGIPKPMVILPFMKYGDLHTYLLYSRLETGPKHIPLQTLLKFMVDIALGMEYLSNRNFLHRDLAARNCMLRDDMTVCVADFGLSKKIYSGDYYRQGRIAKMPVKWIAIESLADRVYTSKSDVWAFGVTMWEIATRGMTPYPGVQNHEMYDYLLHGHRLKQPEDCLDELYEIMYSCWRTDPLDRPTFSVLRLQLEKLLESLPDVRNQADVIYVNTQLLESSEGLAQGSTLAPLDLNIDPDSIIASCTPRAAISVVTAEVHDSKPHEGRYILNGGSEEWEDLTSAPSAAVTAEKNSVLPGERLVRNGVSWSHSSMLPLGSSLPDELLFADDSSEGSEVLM
Sequence of Fyn (P06241 whole entry, looked up): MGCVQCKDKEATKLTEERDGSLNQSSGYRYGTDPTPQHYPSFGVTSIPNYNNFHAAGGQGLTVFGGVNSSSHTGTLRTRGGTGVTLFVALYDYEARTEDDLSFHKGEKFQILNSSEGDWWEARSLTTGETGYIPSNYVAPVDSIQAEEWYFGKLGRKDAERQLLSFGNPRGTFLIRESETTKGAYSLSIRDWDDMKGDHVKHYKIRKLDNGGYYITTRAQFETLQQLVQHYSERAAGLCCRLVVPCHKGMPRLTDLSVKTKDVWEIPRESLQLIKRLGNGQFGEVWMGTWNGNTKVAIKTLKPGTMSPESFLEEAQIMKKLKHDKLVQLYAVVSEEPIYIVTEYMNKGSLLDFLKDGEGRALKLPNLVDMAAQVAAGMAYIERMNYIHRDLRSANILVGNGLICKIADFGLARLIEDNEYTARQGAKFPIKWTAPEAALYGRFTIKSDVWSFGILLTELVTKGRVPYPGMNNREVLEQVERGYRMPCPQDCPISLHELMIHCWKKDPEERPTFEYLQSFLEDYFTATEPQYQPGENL
Sequence of Hck (P08631 whole entry, looked up): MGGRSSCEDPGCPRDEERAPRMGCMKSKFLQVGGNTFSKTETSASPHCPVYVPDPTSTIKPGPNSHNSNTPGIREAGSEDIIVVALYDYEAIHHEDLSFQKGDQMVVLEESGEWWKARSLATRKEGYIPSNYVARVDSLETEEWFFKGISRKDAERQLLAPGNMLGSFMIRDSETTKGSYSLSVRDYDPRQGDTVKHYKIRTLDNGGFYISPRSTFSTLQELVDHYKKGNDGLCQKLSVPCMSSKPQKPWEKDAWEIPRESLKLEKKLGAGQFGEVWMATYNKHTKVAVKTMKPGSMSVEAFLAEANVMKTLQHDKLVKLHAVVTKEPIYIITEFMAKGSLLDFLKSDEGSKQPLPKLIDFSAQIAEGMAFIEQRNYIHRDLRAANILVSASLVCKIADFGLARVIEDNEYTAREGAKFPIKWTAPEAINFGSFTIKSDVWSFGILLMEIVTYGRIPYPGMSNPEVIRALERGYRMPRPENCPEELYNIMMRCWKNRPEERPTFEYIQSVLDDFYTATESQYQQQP
Sequence of FGFR1 (P11362 whole entry, looked up): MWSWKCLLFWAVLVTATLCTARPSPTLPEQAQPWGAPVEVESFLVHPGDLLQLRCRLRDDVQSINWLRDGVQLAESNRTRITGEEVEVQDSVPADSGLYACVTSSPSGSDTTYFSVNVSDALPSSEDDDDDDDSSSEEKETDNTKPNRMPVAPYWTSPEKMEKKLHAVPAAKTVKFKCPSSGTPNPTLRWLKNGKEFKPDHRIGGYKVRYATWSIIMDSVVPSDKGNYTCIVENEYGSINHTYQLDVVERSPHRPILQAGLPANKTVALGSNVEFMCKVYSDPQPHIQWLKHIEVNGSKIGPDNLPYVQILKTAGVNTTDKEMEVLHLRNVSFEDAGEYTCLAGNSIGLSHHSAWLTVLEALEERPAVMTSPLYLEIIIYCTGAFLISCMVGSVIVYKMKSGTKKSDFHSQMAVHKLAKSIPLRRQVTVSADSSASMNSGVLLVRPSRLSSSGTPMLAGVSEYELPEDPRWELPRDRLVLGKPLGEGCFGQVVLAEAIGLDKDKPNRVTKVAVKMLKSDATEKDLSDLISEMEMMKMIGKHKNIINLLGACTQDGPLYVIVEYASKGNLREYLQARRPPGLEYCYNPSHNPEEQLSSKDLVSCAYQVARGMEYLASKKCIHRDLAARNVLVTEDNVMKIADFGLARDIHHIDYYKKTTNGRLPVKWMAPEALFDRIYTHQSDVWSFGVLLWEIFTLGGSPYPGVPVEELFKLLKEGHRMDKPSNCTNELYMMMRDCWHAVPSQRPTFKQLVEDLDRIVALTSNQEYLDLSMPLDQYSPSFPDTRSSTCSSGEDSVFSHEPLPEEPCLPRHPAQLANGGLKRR
Sequence of Fes (P07332 whole entry, looked up): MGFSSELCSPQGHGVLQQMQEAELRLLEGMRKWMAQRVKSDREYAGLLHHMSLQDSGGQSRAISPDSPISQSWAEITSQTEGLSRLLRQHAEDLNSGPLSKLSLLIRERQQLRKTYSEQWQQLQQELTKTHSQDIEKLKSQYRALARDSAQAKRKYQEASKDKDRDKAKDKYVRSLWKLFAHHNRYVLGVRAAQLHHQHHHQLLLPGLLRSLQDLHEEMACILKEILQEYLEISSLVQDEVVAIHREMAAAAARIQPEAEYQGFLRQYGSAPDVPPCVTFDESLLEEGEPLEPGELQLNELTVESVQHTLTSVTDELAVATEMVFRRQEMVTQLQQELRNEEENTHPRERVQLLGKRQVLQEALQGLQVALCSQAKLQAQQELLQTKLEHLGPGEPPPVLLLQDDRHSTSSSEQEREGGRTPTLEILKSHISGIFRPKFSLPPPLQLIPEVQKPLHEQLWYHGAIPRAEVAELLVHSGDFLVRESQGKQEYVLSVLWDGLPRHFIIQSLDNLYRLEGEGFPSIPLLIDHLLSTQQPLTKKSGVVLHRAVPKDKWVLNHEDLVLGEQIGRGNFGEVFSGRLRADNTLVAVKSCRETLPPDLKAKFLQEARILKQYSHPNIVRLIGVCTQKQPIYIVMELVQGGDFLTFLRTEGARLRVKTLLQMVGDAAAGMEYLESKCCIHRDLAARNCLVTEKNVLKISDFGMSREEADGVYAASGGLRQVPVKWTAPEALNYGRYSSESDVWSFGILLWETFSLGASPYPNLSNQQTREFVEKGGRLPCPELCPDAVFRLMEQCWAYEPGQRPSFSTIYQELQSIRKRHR
Sequence of EPHB2 (P29323 whole entry, looked up): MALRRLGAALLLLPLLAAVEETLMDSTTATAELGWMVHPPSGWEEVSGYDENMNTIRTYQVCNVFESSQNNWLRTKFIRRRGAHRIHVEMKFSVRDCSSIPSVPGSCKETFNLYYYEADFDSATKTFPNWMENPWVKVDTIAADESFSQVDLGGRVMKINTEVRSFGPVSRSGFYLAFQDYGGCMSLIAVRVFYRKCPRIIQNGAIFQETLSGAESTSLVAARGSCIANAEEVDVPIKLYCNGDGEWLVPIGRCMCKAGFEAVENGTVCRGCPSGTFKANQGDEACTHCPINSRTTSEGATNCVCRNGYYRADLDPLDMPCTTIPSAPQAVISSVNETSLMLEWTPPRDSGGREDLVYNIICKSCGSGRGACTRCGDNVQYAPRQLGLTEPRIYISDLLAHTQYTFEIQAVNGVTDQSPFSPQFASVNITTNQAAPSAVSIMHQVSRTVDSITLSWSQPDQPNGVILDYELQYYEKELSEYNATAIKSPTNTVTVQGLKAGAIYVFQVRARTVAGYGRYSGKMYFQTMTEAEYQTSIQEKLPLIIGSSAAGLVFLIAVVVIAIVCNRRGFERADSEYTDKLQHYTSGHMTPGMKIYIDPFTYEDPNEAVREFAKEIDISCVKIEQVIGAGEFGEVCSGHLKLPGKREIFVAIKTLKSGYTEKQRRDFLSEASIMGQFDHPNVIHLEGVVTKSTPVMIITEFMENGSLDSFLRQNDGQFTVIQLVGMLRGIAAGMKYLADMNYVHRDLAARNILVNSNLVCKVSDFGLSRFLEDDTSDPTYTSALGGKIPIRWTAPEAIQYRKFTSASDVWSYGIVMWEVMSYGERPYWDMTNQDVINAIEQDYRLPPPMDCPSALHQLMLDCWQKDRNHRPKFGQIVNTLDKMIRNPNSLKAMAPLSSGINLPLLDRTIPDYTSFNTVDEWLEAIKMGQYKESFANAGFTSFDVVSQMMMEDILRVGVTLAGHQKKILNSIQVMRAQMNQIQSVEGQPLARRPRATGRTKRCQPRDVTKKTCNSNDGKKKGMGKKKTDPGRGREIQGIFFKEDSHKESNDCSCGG
Sequence of Grb2 SH2 (P62993 whole entry, looked up): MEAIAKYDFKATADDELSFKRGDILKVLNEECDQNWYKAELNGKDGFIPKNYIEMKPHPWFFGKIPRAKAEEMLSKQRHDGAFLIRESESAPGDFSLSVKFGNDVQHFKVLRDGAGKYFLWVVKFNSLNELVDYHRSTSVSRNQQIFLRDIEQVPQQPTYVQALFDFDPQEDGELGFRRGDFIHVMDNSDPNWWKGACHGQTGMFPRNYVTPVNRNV

Sequence	phosphorylation enrichment [1]	phosphorylation enrichment [2]	phosphorylation enrichment [3]	phosphorylation enrichment [4]	phosphorylation enrichment [5]	phosphorylation enrichment [6]	phosphorylation enrichment [7]	phosphorylation enrichment [8]	phosphorylation enrichment [9]	phosphorylation enrichment [10]	phosphorylation enrichment [11]	phosphorylation enrichment [12]	phosphorylation enrichment [13]	SH2 binding enrichment [14]	SH2 binding enrichment [15]	SH2 binding enrichment [16]
MASISYDFCRV [BST2_Y6_T4I_YF]	0.554	0.692	1.03	1.59	0.629	0.908	0.712	0.497	0.496	1.17	0.653	1.24	0.824	0.764	0.672	0.666
MDDKEYYSVHN [MET_Y1234_Y1230D]	0.575	0.613	1.03	0.54	0.619	0.747	0.62	0.695	2.06	1.06	0.373	1.99	1.88	0.952	0.557	0.759
METKGYQSLPE [NR3C2_Y6_H7Q]	0.421	0.495	0.77	0.448	0.423	0.683	0.449	0.326	0.449	0.825	0.361	0.682	0.568	0.728	0.841	0.557
MFNPCYGLFEY [NEDD4L_Y680_Y679C]	5.24	0.739	1.11	1.6	2.54	0.842	0.604	5.01	0.616	1.32	1.69	1.26	0.752	0.867	0.641	0.633
MFNPFYGLFEF [NEDD4L_Y680_YF]	4.38	0.513	0.852	5.44	2.35	0.775	0.549	5.41	0.602	1.04	5.83	0.998	0.794	1.56	1.17	1.5
MGIMLYGVDSR [PKD1_Y3143_V3138M]	0.467	0.546	1.03	0.529	0.55	0.745	0.576	0.496	0.449	1.08	0.475	0.931	0.694	0.61	0.439	0.653
MKTISYETLIA [DOCK10_Y1350]	0.431	0.53	0.927	0.497	0.501	0.526	0.474	0.379	0.472	0.926	0.384	0.847	0.622	0.747	1.97	0.792
MNPPPYSQLLS [FGF23_Y154_F157L]	0.522	0.639	0.523	0.483	0.568	0.489	0.606	0.644	0.527	0.623	0.451	0.692	0.71	0.776	1.34	0.656
MRALTYCDLHK [KCNH2_Y827_V822M]	0.407	0.73	0.771	0.507	0.507	0.626	0.523	0.37	0.509	1.09	0.365	0.853	0.536	0.703	0.626	0.708
MSFDRYMAVCH [OR2A5_Y123_I126V_YF]	0.585	0.858	0.927	0.558	0.638	0.931	0.838	0.473	0.532	1.1	0.567	1.09	0.738	0.789	0.845	0.684
MSIWPYLQKID [MFSD8_Y63]	0.329	0.667	0.627	0.362	0.468	0.699	0.472	0.323	0.422	0.854	0.302	0.789	0.599	0.838	0.71	0.997
MSRDVYSTDYY [NTRK2_Y702]	2.77	2.16	0.788	0.535	1.73	0.558	2.65	3.88	3.94	0.842	5.06	1.59	2.72	1.2	0.715	0.735
MSSLPYMKVIF [SLC4A11_Y853_M856V]	0.507	0.482	1.02	1.01	0.622	0.461	0.541	0.516	0.764	0.84	0.507	0.822	0.592	1.38	1	2.98
NACGLYYKLHN [GATA2_Y376]	0.504	1.13	2.27	0.56	1.21	0.922	0.774	1.54	1.43	1.3	2.29	1.5	1.48	0.739	0.716	0.547
NDFGNYSNQSS [HNRNPA1_Y318_N319S]	0.416	6.89	0.546	0.43	0.451	0.458	1.92	0.463	0.461	0.619	0.501	1.02	0.49	0.795	0.421	0.625
NDKLRYEVSSP [CDH13_Y66]	0.421	0.473	0.884	0.443	0.502	0.692	0.502	0.438	0.475	1.01	0.451	1.14	0.615	0.711	0.473	0.567
NDTAGYFVIGG [SEL1L3_Y399_I401V]	0.848	0.669	6.88	0.581	0.75	0.781	0.642	0.727	2.16	1.1	0.872	1.17	1.64	0.664	7.22	0.784

Sequence	phosphorylation enrichment [1]	phosphorylation enrichment [2]	phosphorylation enrichment [3]	phosphorylation enrichment [4]	phosphorylation enrichment [5]	phosphorylation enrichment [6]	phosphorylation enrichment [7]	phosphorylation enrichment [8]	phosphorylation enrichment [9]	phosphorylation enrichment [10]	phosphorylation enrichment [11]	phosphorylation enrichment [12]	phosphorylation enrichment [13]	SH2 binding enrichment [14]	SH2 binding enrichment [15]	SH2 binding enrichment [16]
NFATLYLKIFH [PDE6B_Y219_YF]	0.412	0.604	0.953	0.502	0.497	0.83	0.599	0.434	0.669	1.27	0.457	1.21	0.734	1.26	0.781	1.1
NFATLYLKIYH [PDE6B_Y219]	0.42	0.564	1.27	0.492	0.42	0.827	0.574	0.403	0.464	1.28	0.392	0.989	0.709	0.887	0.539	0.859
NGRTGYVLQPE [PLCG2_Y1036]	0.448	0.435	0.566	0.466	0.474	0.494	0.384	0.416	0.383	0.757	0.399	0.588	0.431	0.793	0.496	0.644
NGSKGYAFVHF [PABPC5_Y147_YF]	0.469	0.481	0.825	0.478	0.445	0.755	0.606	0.407	0.5	0.875	0.444	0.879	0.611	1.09	3.1	25.9
NGTVTYAIVAG [CDH23_Y1672]	0.904	3.07	0.799	0.471	1.09	0.688	2.01	1.08	0.545	0.992	2.6	0.99	0.714	0.655	1.24	12.8
NHQYDYTFHWT [CSNK1A1_Y294_D297H]	0.602	3.18	0.892	9.26	0.758	0.7	3.07	1.84	5.52	0.938	3.15	2.13	3.88	1.15	2.86	0.938
NLSVPYDSSLK [ABCC8_Y1353_R1352P]	0.41	0.451	0.588	0.418	0.445	0.516	0.509	0.508	0.445	0.68	0.426	0.601	0.503	0.765	0.489	0.735
NLTLKYPIEHG [ACTA1_Y71_I66N]	0.47	0.493	0.669	0.375	0.446	0.717	0.541	0.417	0.598	0.93	0.407	0.767	0.549	0.804	0.507	0.718
NMHSTYAKLAA [SEC22B_Y193]	0.415	0.437	0.362	0.34	0.948	0.47	0.451	0.375	0.385	0.401	0.38	0.382	0.349	0.796	1.71	13.7
NNHGNYIVHLG [ETFDH_Y172_R175H]	0.525	4.2	0.583	0.712	0.511	0.53	2.19	0.391	0.623	0.698	0.493	0.71	0.537	0.863	0.587	0.856
NPIGLYSAETL [LDB3_Y202]	0.666	1.73	0.71	1.12	0.967	0.496	1.74	0.962	0.451	0.72	4.18	0.691	0.498	0.813	0.486	0.769
NPQKSYFICLY [WAS_Y83_R86C]	0.443	0.675	1.12	0.496	0.438	0.925	0.604	0.415	0.848	1.2	0.557	1.11	0.975	1.11	0.412	0.66
NPSYNYEIVNQ [DYNC1H1_Y3379_R3384Q]	0.463	10.5	0.754	2.7	0.497	0.55	4.17	0.506	0.583	0.818	0.694	0.885	0.701	0.736	0.642	0.348
NREGVYTDFAP [TGFBI_Y537_V539D]	9.31	0.578	0.823	2.51	2.95	0.868	0.624	7.49	0.645	1.13	1.71	0.843	0.608	0.976	0.661	0.927
NSFKFYMSDDI [ATRX_Y204_C200S_YF]	0.517	0.56	1.12	0.488	0.54	0.657	0.552	0.574	0.53	1.28	0.497	1.14	0.693	0.982	0.604	0.79
NSRFTYKLEVK [USH2A_Y3747_YF]	0.38	0.649	1.25	0.599	0.475	0.853	0.545	0.382	0.432	1.39	0.467	1.22	0.761	0.757	0.331	0.561

Source: the supplement of paper PMC10065799, “High-throughput profiling of sequence recognition by tyrosine kinases and SH2 domains using bacterial peptide display” (eLife, 2023)
